How the values were obtained:
Test in all cases: COS cells on LFA-1 coated plastic
ICAM-1 Y83/S = ICAM-1 Y83/S (human, UniProt P05362)
ICAM-1 N175/A = ICAM-1 N175/A (human, UniProt P05362)
ICAM-1 R88V/EA = ICAM-1 R88V/EA (human, UniProt P05362)
ICAM-1 D213GL/HGV = ICAM-1 D213GL/HGV (human, UniProt P05362)
ICAM-1 Q1/K = ICAM-1 Q1/K (human, UniProt P05362)
ICAM-1 N56V/HM = ICAM-1 N56V/HM (human, UniProt P05362)
ICAM-1 K50V/EL = ICAM-1 K50V/EL (human, UniProt P05362)
ICAM-1 S61/I = ICAM-1 S61/I (human, UniProt P05362)
ICAM-1 E90/Q = ICAM-1 E90/Q (human, UniProt P05362)
ICAM-1 K39KE/ERQ = ICAM-1 K39KE/ERQ (human, UniProt P05362)
ICAM-1 R13/Q = ICAM-1 R13/Q (human, UniProt P05362)
ICAM-1 G46NN/ASI = ICAM-1 G46NN/ASI (human, UniProt P05362)
ICAM-1 Q73/H = ICAM-1 Q73/H (human, UniProt P05362)
ICAM-1 S3/T = ICAM-1 S3/T (human, UniProt P05362)
ICAM-1 Q73/T = ICAM-1 Q73/T (human, UniProt P05362)
ICAM-1 K8/E = ICAM-1 K8/E (human, UniProt P05362)
ICAM-1 N103/K = ICAM-1 N103/K (human, UniProt P05362)
ICAM-1 A178/G = ICAM-1 A178/G (human, UniProt P05362)
ICAM-1 Q58/H = ICAM-1 Q58/H (human, UniProt P05362)
ICAM-1 K77T/ES = ICAM-1 K77T/ES (human, UniProt P05362)
[1] = target: ICAM-1 N269QSQI/IQAEQ (human) (UniProt P05362)
ICAM-1 N175TSA/QTLG = ICAM-1 N175TSA/QTLG (human, UniProt P05362)
ICAM-1 Y52/F = ICAM-1 Y52/F (human, UniProt P05362)
ICAM-1 N48/H = ICAM-1 N48/H (human, UniProt P05362)
ICAM-1 E59/K = ICAM-1 E59/K (human, UniProt P05362)
ICAM-1 Q1/E = ICAM-1 Q1/E (human, UniProt P05362)
ICAM-1 Q1T/KA = ICAM-1 Q1T/KA (human, UniProt P05362)
ICAM-1 E87/K = ICAM-1 E87/K (human, UniProt P05362)
ICAM-1 D71/N = ICAM-1 D71/N (human, UniProt P05362)
ICAM-1 S3VS/AGL = ICAM-1 S3VS/AGL (human, UniProt P05362)
ICAM-1 D71GQS/NGEL = ICAM-1 D71GQS/NGEL (human, UniProt P05362)
ICAM-1 Y66/T = ICAM-1 Y66/T (human, UniProt P05362)
ICAM-1 E127/R = ICAM-1 E127/R (human, UniProt P05362)
ICAM-1 S24/A = ICAM-1 S24/A (human, UniProt P05362)
ICAM-1 R49KV/EKL = ICAM-1 R49KV/EKL (human, UniProt P05362)
ICAM-1 M64/I = ICAM-1 M64/I (human, UniProt P05362)
ICAM-1 V4/G = ICAM-1 V4/G (human, UniProt P05362)
ICAM-1 G101K/AN = ICAM-1 G101K/AN (human, UniProt P05362)
ICAM-1 Y52/FA = ICAM-1 Y52/FA (human, UniProt P05362)
ICAM-1 A189T/SI = ICAM-1 A189T/SI (human, UniProt P05362)
ICAM-1 Q27/L = ICAM-1 Q27/L (human, UniProt P05362)
ICAM-1 T75/A = ICAM-1 T75/A (human, UniProt P05362)
ICAM-1 E59/Q = ICAM-1 E59/Q (human, UniProt P05362)
ICAM-1 K128/R = ICAM-1 K128/R (human, UniProt P05362)
ICAM-1 S5/T (human) = ICAM-1 S5/T (human) (UniProt P05362)

Substance: purified LFA-1, bound to plastic (from UniProt P20701) (receptor)
- LFA-1 Binding % (% of wild type) (ICAM-1 Y83/S): 42
- LFA-1 Binding % (% of wild type) (ICAM-1 N175/A): 67
- LFA-1 Binding % (% of wild type) (ICAM-1 R88V/EA): 95
- LFA-1 Binding % (% of wild type) (ICAM-1 D213GL/HGV): 90
- LFA-1 Binding % (% of wild type) (ICAM-1 Q1/K): 97
- LFA-1 Binding % (% of wild type) (ICAM-1 N56V/HM): 121
- LFA-1 Binding % (% of wild type) (ICAM-1 K50V/EL): 29
- LFA-1 Binding % (% of wild type) (ICAM-1 S61/I): 59
- LFA-1 Binding % (% of wild type) (ICAM-1 E90/Q): 122
- LFA-1 Binding % (% of wild type) (ICAM-1 K39KE/ERQ): 99
- LFA-1 Binding % (% of wild type) (ICAM-1 R13/Q): 78
- LFA-1 Binding % (% of wild type) (ICAM-1 G46NN/ASI): 49
- LFA-1 Binding % (% of wild type) (ICAM-1 Q73/H): 12
- LFA-1 Binding % (% of wild type) (ICAM-1 S3/T): 149
- LFA-1 Binding % (% of wild type) (ICAM-1 Q73/T): 40
- LFA-1 Binding % (% of wild type) (ICAM-1 K8/E): 84
- LFA-1 Binding % (% of wild type) (ICAM-1 N103/K): 12
- LFA-1 Binding % (% of wild type) (ICAM-1 A178/G): 59
- LFA-1 Binding % (% of wild type) (ICAM-1 Q58/H): 109
- LFA-1 Binding % (% of wild type) (ICAM-1 K77T/ES): 87
- LFA-1 Binding % (% of wild type) [1]: 101
- LFA-1 Binding % (% of wild type) (ICAM-1 N175TSA/QTLG): 26
- LFA-1 Binding % (% of wild type) (ICAM-1 Y52/F): 72
- LFA-1 Binding % (% of wild type) (ICAM-1 N48/H): 88
- LFA-1 Binding % (% of wild type) (ICAM-1 E59/K): 134
- LFA-1 Binding % (% of wild type) (ICAM-1 Q1/E): 175
- LFA-1 Binding % (% of wild type) (ICAM-1 Q1T/KA): 119
- LFA-1 Binding % (% of wild type) (ICAM-1 E87/K): 65
- LFA-1 Binding % (% of wild type) (ICAM-1 D71/N): 79
- LFA-1 Binding % (% of wild type) (ICAM-1 S3VS/AGL): 18
- LFA-1 Binding % (% of wild type) (ICAM-1 D71GQS/NGEL): 1
- LFA-1 Binding % (% of wild type) (ICAM-1 Y66/T): 135
- LFA-1 Binding % (% of wild type) (ICAM-1 E127/R): 82
- LFA-1 Binding % (% of wild type) (ICAM-1 S24/A): 80
- LFA-1 Binding % (% of wild type) (ICAM-1 R49KV/EKL): 123
- LFA-1 Binding % (% of wild type) (ICAM-1 M64/I): 111
- LFA-1 Binding % (% of wild type) (ICAM-1 V4/G): 64
- LFA-1 Binding % (% of wild type) (ICAM-1 G101K/AN): 97
- LFA-1 Binding % (% of wild type) (ICAM-1 Y52/FA): 138
- LFA-1 Binding % (% of wild type) (ICAM-1 A189T/SI): 91
- LFA-1 Binding % (% of wild type) (ICAM-1 Q27/L): 37
- LFA-1 Binding % (% of wild type) (ICAM-1 T75/A): 59
- LFA-1 Binding % (% of wild type) (ICAM-1 E59/Q): 84
- LFA-1 Binding % (% of wild type) (ICAM-1 K128/R): 109
- LFA-1 Binding % (% of wild type) (ICAM-1 S5/T (human)): 104

Reference: patent US20090035321A1, “Intercellular adhesion molecules and their binding ligands” (Boehringer Ingelheim Pharmaceuticals, Inc., published 2009)
